± gives the uncertainty stated by the source.

The data set in a line: self-splicing fitness, log relative to wild type (ln ratio); higher = more splicing; Tetrahymena group I intron in knt gene, E. coli kanamycin selection, DiMSum; sequences stand for … in CUCUCU…GGAGGGAAAAGUUAUCAGGCAUGCACCUGGUAGCUAGUCUUUAAACCAAUAGAUUGCAUCGGUUUAAAAGGCAAGACCGUCAAAUUGCGGGAAAGGGGUCAACAGCCGUUCAGUACCAAGUCUCAGGGGAAACUUUGAGAUGGCCUUGCAAAGGGUAUGGUAAUAAGCUGACGGACAUGGUCCUAACCACGCAGCCAAGUCCUAAGUCAACAGAUCUUCUGUUGAUAUGGAUGCAGUUCACAGACUAAAUGUCGGUCGGGGAAGAUGUAUUCUUCUCAUAAGAUAUAGUCGGACCUCUCCUUAAUGGGAGCUAGCGGAUGAAGUGAUGCAACACUGGAGCCGCUGGGAACUAAUUUGUAUGCGAAAGUAUAUUGAUUAGUUUUGGAGUACUCGUGGUCG
In a few lines: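 The eight P1ex-region nucleotides of an intron in the knt kanamycin-resistance gene on pET-22b(+) were all randomised and the library put into E. coli BL21(DE3). Six replicate transformations were grown overnight at 37°C or 30°C on LB agar with or without 25 μg/mL kanamycin, together with 100 μg/mL carbenicillin, 50 μM IPTG and 0.2% rhamnose. Colonies were pooled and amplicon-sequenced on an Illumina HiSeq 2500. Fitness from DiMSum is the error-weighted combination of wild-type-normalised replicate fold changes, kanamycin over none.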

For GUCAAGCAAUAUUACGGUAA, the “self-splicing fitness (ln)” value was -1.28 ± 0.18 (30 °C) and -0.000783 ± 0.17 (37 °C).

As to GUCAAGCAAUAUUACGGUGC, the “self-splicing fitness (ln)” value is -2.35 ± 0.12 (30 °C) and -1.72 ± 0.18 (37 °C).

In the case of GUCAAGCAAUAUUACGUAGA, the “self-splicing fitness (ln)” value (30 °C) was -2.04 ± 0.1 and the “self-splicing fitness (ln)” value (37 °C) is -1.17 ± 0.12.

GUCAAGCAAUAUUACGUAGC: the “self-splicing fitness (ln)” value (30 °C) is -1.55 ± 0.12 and the “self-splicing fitness (ln)” value (37 °C) is -1.07 ± 0.15.

As for GUCAAGCAAUAUUACGUCGC, the “self-splicing fitness (ln)” value by setting is: (30 °C) -3.74 ± 0.21; (37 °C) -2.13 ± 0.19.

For the sequence GUCAAGCAAUAUUACGUCGG, the “self-splicing fitness (ln)” value (37 °C) was -1.88 ± 0.18.

In the case of GUCAAGCAAUAUUACGUGGA, the “self-splicing fitness (ln)” value reads like this: (30 °C) -2.86 ± 0.17; (37 °C) -1.58 ± 0.12.

As to GUCAAGCAAUAUUACGUGUA, the “self-splicing fitness (ln)” value was -1.8 ± 0.062 (30 °C) and -0.887 ± 0.072 (37 °C).

On to GUCAAGCAAUAUUACGUUUA, for which the “self-splicing fitness (ln)” value is -1.92 ± 0.096 (30 °C) and -0.845 ± 0.091 (37 °C).

In the case of GUCAAGCAAUAUUACGUUUG, the “self-splicing fitness (ln)” value (37 °C) was -3.38 ± 0.2.

For GUCCAGCAAUAUUACGAACA, the “self-splicing fitness (ln)” value (30 °C) is -1.83 ± 0.15 and the “self-splicing fitness (ln)” value (37 °C) is -0.801 ± 0.12.

Turning to GUCCAGCAAUAUUACGAAGC, the “self-splicing fitness (ln)” value is -0.345 ± 0.072 (30 °C) and -0.167 ± 0.085 (37 °C).

In the case of GUCCAGCAAUAUUACGAAGG, the “self-splicing fitness (ln)” value is -1.34 ± 0.24 (30 °C) and -1.66 ± 0.28 (37 °C).

For the sequence GUCCAGCAAUAUUACGAAUG, the “self-splicing fitness (ln)” value is -2.65 ± 0.17 (30 °C) and -1.31 ± 0.15 (37 °C).

For the sequence GUCCAGCAAUAUUACGACCC, the “self-splicing fitness (ln)” value was -0.218 ± 0.18 (30 °C) and 0.168 ± 0.21 (37 °C).

For the sequence GUCCAGCAAUAUUACGAUUU, the “self-splicing fitness (ln)” value by setting is: (30 °C) -0.323 ± 0.064; (37 °C) 0.653 ± 0.067.

For GUCCAGCAAUAUUACGCACG, the “self-splicing fitness (ln)” value was -2.07 ± 0.21 (30 °C) and -0.825 ± 0.13 (37 °C).

On to GUCCAGCAAUAUUACGCGCA, for which the “self-splicing fitness (ln)” value is -0.0872 ± 0.1 (30 °C) and 0.23 ± 0.11 (37 °C).

For GUCCAGCAAUAUUACGCGGA, the “self-splicing fitness (ln)” value is -3.96 ± 0.25 (30 °C) and -4.4 ± 0.46 (37 °C).

Consider GUCCAGCAAUAUUACGGCCA, for which the “self-splicing fitness (ln)” value is -0.678 ± 0.13 (30 °C) and -0.279 ± 0.14 (37 °C).

Regarding GUCCAGCAAUAUUACGGUUU, the “self-splicing fitness (ln)” value is -0.181 ± 0.052 (30 °C) and 0.389 ± 0.064 (37 °C).

Take GUCCAGCAAUAUUACGUAAA: the “self-splicing fitness (ln)” value runs as follows: (30 °C) -0.484 ± 0.081; (37 °C) 0.338 ± 0.12.

Take GUCCAGCAAUAUUACGUAGA: the “self-splicing fitness (ln)” value runs as follows: (30 °C) -0.646 ± 0.064; (37 °C) -0.201 ± 0.086.

Regarding GUCCAGCAAUAUUACGUAGC, the “self-splicing fitness (ln)” value by setting is: (30 °C) -0.399 ± 0.062; (37 °C) -0.149 ± 0.075.

For GUCCAGCAAUAUUACGUCAA, the “self-splicing fitness (ln)” value runs as follows: (30 °C) -1.23 ± 0.12; (37 °C) -1.99 ± 0.14.

For GUCGAGCAAUAUUACGAGCA, the “self-splicing fitness (ln)” value (30 °C) was -1.76 ± 0.3.

As for GUCGAGCAAUAUUACGAUGG, the “self-splicing fitness (ln)” value runs as follows: (30 °C) -3.01 ± 0.28; (37 °C) -1.85 ± 0.18.

Take GUCGAGCAAUAUUACGCAUC: the “self-splicing fitness (ln)” value runs as follows: (30 °C) -2.31 ± 0.26; (37 °C) -0.574 ± 0.22.

With GUCGAGCAAUAUUACGCCAG, the “self-splicing fitness (ln)” value (37 °C) was -2 ± 0.43.

For GUCGAGCAAUAUUACGCCCG, the “self-splicing fitness (ln)” value is, setting by setting: (30 °C) -2.96 ± 0.48; (37 °C) -2.03 ± 0.4.

For the sequence GUCGAGCAAUAUUACGCUCU, the “self-splicing fitness (ln)” value (30 °C) is -1.61 ± 0.24 and the “self-splicing fitness (ln)” value (37 °C) was -1.39 ± 0.23.

With GUCGAGCAAUAUUACGCUGC, under “37 °C”, the “self-splicing fitness (ln)” value was -1.97 ± 0.48.

Regarding GUCGAGCAAUAUUACGGAAG, the “self-splicing fitness (ln)” value (30 °C) was -3.26 ± 0.26 and the “self-splicing fitness (ln)” value (37 °C) is -2.35 ± 0.28.

For GUCGAGCAAUAUUACGGCCA, the “self-splicing fitness (ln)” value reads like this: (30 °C) -1.28 ± 0.36; (37 °C) -0.721 ± 0.27.

GUCGAGCAAUAUUACGGCGG: under “37 °C”, the “self-splicing fitness (ln)” value is -2.67 ± 0.41.

The values above are taken from the supplement of paper PMC7877785.
